Sequences and labels used below:
B1: Peptide A34 (peptide)
peptide: AAGSHPSRWAGMGRRLLLRSA
notes: alanine-scan variant of the domain I 21-mer
B2: Peptide A36 (peptide)
peptide: AAGSHPSRWAGMGRRLLLASV
notes: as for B1
B3: Peptide A35 (peptide)
peptide: AAGSHPSRWAGMGRRLLLRAV
notes: as for B1
B4: Peptide A45 (peptide)
peptide: AAGSHPSRAAGMGRRLLLRSV
notes: as for B1
B5: Peptide A47 (peptide)
peptide: AAGSHPARWAGMGRRLLLRSV
notes: as for B1
B6: Peptide A46 (peptide)
peptide: AAGSHPSAWAGMGRRLLLRSV
notes: as for B1
B7: Peptide A38 (peptide)
peptide: AAGSHPSRWAGMGRRLALRSV
notes: as for B1
B8: Peptide A43 (peptide)
peptide: AAGSHPSRWAGAGRRLLLRSV
notes: as for B1
B9: Peptide A44 (peptide)
peptide: AAGSHPSRWAAMGRRLLLRSV
notes: as for B1
B10: Peptide A39 (peptide)
peptide: AAGSHPSRWAGMGRRALLRSV
notes: as for B1
B11: Peptide A42 (peptide)
peptide: AAGSHPSRWAGMARRLLLRSV
notes: as for B1
B12: Peptide A37 (peptide)
peptide: AAGSHPSRWAGMGRRLLARSV
notes: as for B1
B13: Peptide A40 (peptide)
peptide: AAGSHPSRWAGMGRALLLRSV
notes: as for B1
B14: Peptide A41 (peptide)
peptide: AAGSHPSRWAGMGARLLLRSV
notes: as for B1

This assay has as its target T1, recombinant human IL-6 (human, UniProt P05231 30-212, labeled with radioactive iodine).
T1 construct: Labeled probe in solution, added to wells that carry the synthetic peptides; also called IL-6 ligand; Interleukin-6
The assay can be described thus: radioiodinated IL-6 on peptide array. On the procedure:
Synthetic peptide arrays were constructed in 96-well microtiter plates in accordance with the method set forth in WO 91/02714 (Saxinger), and used to test the binding of recombinant human IL-6 that had been labeled with radioactive iodine (radiolabeling by standard methods). After incubating the radiolabeled IL-6 ligand in a well with each synthetic peptide, a washing step was performed to remove unbound label, and the relative level of radioactivity remaining in each well of the plate was evaluated to determine the relative affinity of each peptide for IL-6 ligand.
Turning to SRWAGMGRRLLLRSV [Peptide A23], the Counts/minute bound came to 8270 counts/minute.
For HPSRWAGMGRRLLLRSV [Peptide A21], the Counts/minute bound came out at 12000 counts/minute.
Take PRSTPSLTTKAVLLVR [Peptide B6]: the Counts/minute bound stood at 4360 counts/minute.
In the case of MGRRLLLRSV [Peptide A28], the Counts/minute bound is 7140 counts/minute.
The figure for AAGSHPSRWAGM [Peptide A10] is 1440 counts/minute; for AAGSHPSRWAG [Peptide A11] it is 1430 counts/minute.
With AAGSHPS (also called AAGSHPS) [Peptide A15] the figure was 1320 counts/minute; with AAGSHPSRW [Peptide A13], 1520 counts/minute.
With PRSTPSLTTKAV [Peptide B10] the figure was 1220 counts/minute; with AGMGRRLLLRSV [Peptide A26], 7620 counts/minute; with AAGSHPSRWAGMGR [Peptide A8], 1480 counts/minute.
Take RRLLLRSV [Peptide A30]: the Counts/minute bound was 5970 counts/minute.
The figure for AAGSHPSRWA [Peptide A12] is 1330 counts/minute; for AAGSHPSRWAGMG [Peptide A9] it is 1470 counts/minute.
With PRSTPSLTTKAVLLV [Peptide B7] the figure was 3400 counts/minute.
The figure for AAGSHP (also called AAGSHP) [Peptide A16] is 1570 counts/minute; for SHPSRWAGMGRRLLLRSV [Peptide A20] it is 12000 counts/minute.
Regarding RWAGMGRRLLLRSV [Peptide A24], the Counts/minute bound came to 12100 counts/minute.
Regarding PRSTPSLTTKAVL [Peptide B9], the Counts/minute bound turned out to be 1400 counts/minute.
PSRWAGMGRRLLLRSV [Peptide A22]: the Counts/minute bound was found to be 11100 counts/minute.
The figure for AAGSHPSR [Peptide A14] is 1350 counts/minute.
With PRSTPSLTTKAVLLVRKF [Peptide B4], the Counts/minute bound was determined as 4690 counts/minute.
With B1, the Counts/minute bound worked out at 11800 counts/minute.
In the case of B2, the Counts/minute bound amounted to 4900 counts/minute.
With B3 the figure was 11200 counts/minute.
The figure for B4 is 8040 counts/minute.
The figure for B5 is 11300 counts/minute; for B6 it is 9520 counts/minute.
Take B7: the Counts/minute bound worked out at 7080 counts/minute.
With B8 the figure was 13500 counts/minute; with B9, 11900 counts/minute; with B10, 5280 counts/minute.
With B11 the figure was 12300 counts/minute; with B12, 7730 counts/minute; with B13, 4250 counts/minute.
As to B14, the Counts/minute bound is 4460 counts/minute.
With PRSTPSLTTKAVLLVRKFQ [Peptide B3] the figure was 7080 counts/minute.
With LLLRSV (also called LLLRSV) [Peptide A32] the figure was 1600 counts/minute; with PRSTPSLTTKAVLLVRKFQN [Peptide B2], 7930 counts/minute; with PRSTPSLTTKAVLLVRK [Peptide B5], 3960 counts/minute.
The figure for GRRLLLRSV [Peptide A29] is 5370 counts/minute.
In the case of AAGSHPSRWAGMGRR [Peptide A7], the Counts/minute bound turned out to be 1340 counts/minute.
For RLLLRSV (also called RLLLRSV) [Peptide A31], the Counts/minute bound stood at 5460 counts/minute.
With WAGMGRRLLLRSV [Peptide A25] the figure was 12200 counts/minute; with GMGRRLLLRSV [Peptide A27], 6820 counts/minute; with GSHPSRWAGMGRRLLLRSV [Peptide A19], 11000 counts/minute.
With AGSHPSRWAGMGRRLLLRSV [Peptide A18] the figure was 13400 counts/minute.
